# Data: patent publication US7727960B2, “C5a receptor antagonists” (Jerini AG, priority 2003, dated 2010)
# Target: T1, human C5aR (CD88) (human, UniProt P21730 1-350)
# T1 sequence (looked up): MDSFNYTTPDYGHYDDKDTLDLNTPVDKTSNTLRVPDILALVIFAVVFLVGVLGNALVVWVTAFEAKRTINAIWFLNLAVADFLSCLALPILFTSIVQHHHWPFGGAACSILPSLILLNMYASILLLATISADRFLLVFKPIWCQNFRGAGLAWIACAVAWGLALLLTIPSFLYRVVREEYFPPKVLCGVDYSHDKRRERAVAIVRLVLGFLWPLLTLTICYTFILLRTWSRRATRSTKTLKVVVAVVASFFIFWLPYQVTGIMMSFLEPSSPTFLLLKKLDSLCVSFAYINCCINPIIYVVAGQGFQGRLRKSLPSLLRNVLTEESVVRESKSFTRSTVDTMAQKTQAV
# Assay: cell-based or functional assay
"IC50 activity group, enzyme release assay","EC50, agonistic activity, enzyme release assay",Substance
< 200 nM,,3PP-Orn-Aze-cha-Bta-Phe-NH2 (peptide)
< 50 nM,,3PP-[Orn-Hyp-cha-Trp-Nle] (peptide)
< 2000 nM,,(-CO-CH2-CH2-CO-)-Phe-Orn-Pro-cha-Bta-Phe-NH2 (peptide)
< 200 nM,,(-CO-CH2-NH-CO-)-Phe-Orn-Pro-cha-Bta-Phe-NH2 (peptide)
< 50 nM,,Ac-Ala-Phe-Orn-Aze-cha-Bta-Phe-NH2 (peptide)
< 50 nM,,Ac-Arg-Phe-Orn-Aze-cha-Bta-Phe-NH2 (peptide)
< 50 nM,,Ac-Cit-Phe-Orn-Aze-cha-Bta-Phe-NH2 (peptide)
< 200 nM,,Ac-Dab-Phe-Orn-Aze-cha-Bta-Phe-NH2 (peptide)
< 200 nM,> 100000 nM,Ac-Ebw-Orn-Pro-cha-Trp-Phe-NH2 (peptide)
< 50 nM,,Ac-Eby-Orn-Pro-cha-Bta-Phe-NH2 (peptide)
< 20 nM,,Ac-Gly-Phe-Orn-Aze-cha-Bta-Phe-NH2 (peptide)
< 200 nM,,Ac-Gly-Phe-Orn-Aze-chg-Bta-Phe-NH2 (peptide)
< 200 nM,,Ac-Gly-Phe-Orn-Aze-hch-Bta-Phe-NH2 (peptide)
< 50 nM,,Ac-Gly-Thi-Orn-Aze-cha-Bta-Phe-NH2 (peptide)
< 200 nM,,Ac-Guf-Phe-Orn-Aze-cha-Bta-Phe-NH2 (peptide)
< 200 nM,,Ac-His-Phe-Orn-Aze-cha-Bta-Phe-NH2 (peptide)
< 50 nM,,Ac-Hyp-Phe-Orn-Aze-cha-Bta-Phe-NH2 (peptide)
< 20 nM,,Ac-Lys-Phe-Orn-Aze-cha-Bta-Phe-NH2 (peptide)
< 200 nM,,Ac-Mff-Orn-Pro-cha-Bta-Phe-NH2 (peptide)
< 200 nM,,Ac-Mff-Orn-Pro-hle-Bta-Phe-NH2 (peptide)
< 200 nM,,Ac-Mff-Orn-Pro-hle-Mcf-Mff-NH2 (peptide)
< 200 nM,,Ac-Mmy-Orn-Pro-hle-Pff-Phe-NH2 (peptide)
< 200 nM,,Ac-NMF-Orn-Pro-cha-Bta-Phe-NH2 (peptide)
< 50 nM,,Ac-Off-Orn-Pro-cha-Bta-Phe-NH2 (peptide)

"IC50 activity group, enzyme release assay","EC50, agonistic activity, enzyme release assay",Substance
< 50 nM,,Ac-Off-Orn-Pro-hle-Bta-Phe-NH2 (peptide)
< 200 nM,,Ac-Orn-Phe-Orn-Aze-cha-Bta-Phe-NH2 (peptide)
< 50 nM,,Ac-Pff-Orn-Pro-cha-Bta-Phe-NH2 (peptide)
< 200 nM,,Ac-Pff-Orn-Pro-hle-Bta-Phe-NH2 (peptide)
< 200 nM,,Ac-Pff-Orn-Pro-hle-Mcf-Pff-NH2 (peptide)
< 50 nM,,Ac-Phe-Bta-Aze-cha-Bta-Phe-NH2 (peptide)
< 200 nM,,Ac-Phe-Cit-Hyp-hle-Bta-Phe-NH2 (peptide)
< 200 nM,,Ac-Phe-Cit-Pro-cha-Bta-Phe-NH2 (peptide)
< 50 nM,,Ac-Phe-Cit-Pro-hle-Bta-Phe-NH2 (peptide)
< 200 nM,,Ac-Phe-Cit-Ser-hle-Bta-Phe-NH2 (peptide)
< 50 nM,,Ac-Phe-Dab-Aze-cha-Bta-Phe-NH2 (peptide)
< 50 nM,,Ac-Phe-Dab-Aze-hle-Bta-Phe-NH2 (peptide)
< 20 nM,,Ac-Phe-Dab-Pro-cha-Bta-Phe-NH2 (peptide)
< 200 nM,,Ac-Phe-Dap-Pro-cha-Bta-Phe-NH2 (peptide)
< 200 nM,,Ac-Phe-Ech-Pro-cha-Bta-Phe-NH2 (peptide)
< 200 nM,,Ac-Phe-Eec-Pro-cha-Bta-Phe-NH2 (peptide)
< 200 nM,,Ac-Phe-Eep-Pro-cha-Bta-Phe-NH2 (peptide)
< 20 nM,,Ac-Phe-Fcn-Aze-cha-Bta-Phe-NH2 (peptide)
< 20 nM,,Ac-Phe-Fcn-Pro-cha-Bta-Phe-NH2 (peptide)
< 50 nM,,Ac-Phe-Fco-Pro-cha-Bta-Phe-NH2 (peptide)
< 50 nM,,Ac-Phe-Fcp-Aze-cha-Bta-Phe-NH2 (peptide)
< 50 nM,,Ac-Phe-Ffa-Aze-cha-Bta-Phe-NH2 (peptide)
< 50 nM,,Ac-Phe-Ffa-Pro-cha-Bta-Phe-NH2 (peptide)
< 20 nM,,Ac-Phe-Ffa-Pro-hle-Bta-Phe-NH2 (peptide)

"IC50 activity group, enzyme release assay","EC50, agonistic activity, enzyme release assay",Substance
< 50 nM,,Ac-Phe-Guf-Pro-cha-Bta-Phe-NH2 (peptide)
< 20 nM,,Ac-Phe-Har-Aze-cha-Bta-Phe-NH2 (peptide)
< 50 nM,,Ac-Phe-Har-Pro-cha-Bta-Phe-NH2 (peptide)
< 200 nM,,Ac-Phe-Mpa-Pro-cha-Bta-Phe-NH2 (peptide)
< 200 nM,,Ac-Phe-Nle-Pro-cha-Bta-Phe-NH2 (peptide)
< 200 nM,,Ac-Phe-OrA-Pro-cha-Bta-Phe-NH2 (peptide)
< 200 nM,,Ac-Phe-OrE-Pro-cha-Bta-Phe-NH2 (peptide)
< 50 nM,,Ac-Phe-Orn(Ac)-Aze-cha-Bta-Phe-NH2 (peptide)
< 2000 nM,,Ac-Phe-Orn-Aze-cha-Bta-NH-CH2-CH2-Ph (peptide)
< 20 nM,,Ac-Phe-Orn-Aze-cha-Bta-Phe-NH2 (peptide)
< 2000 nM,,Ac-Phe-Orn-Aze-cha-Bta-Phe-NH-Me (peptide)
< 200 nM,,Ac-Phe-Orn-Aze-cha-Mcf-Phe-NH2 (peptide)
< 2000 nM,,Ac-Phe-Orn-Aze-cha-Pcf-Phe-NH2 (peptide)
< 200 nM,,Ac-Phe-Orn-Aze-cha-Pff-Phe-NH2 (peptide)
< 50 nM,> 100000 nM,Ac-Phe-Orn-Aze-cha-Trp-Phe-NH2 (peptide)
< 50 nM,,Ac-Phe-Orn-Aze-hle-Bta-Phe-NH2 (peptide)
< 200 nM,,Ac-Phe-Orn-Chy-cha-Bta-Phe-NH2 (peptide)
< 200 nM,,Ac-Phe-Orn-Chy-hle-Pff-Phe-NH2 (peptide)
< 200 nM,,Ac-Phe-Orn-Hse-cha-Bta-Phe-NH2 (peptide)
< 2000 nM,,Ac-Phe-Orn-Hyp-cha-Trp-Phe-NH2 (peptide)
< 200 nM,,Ac-Phe-Orn-Hyp-hle-Bta-Phe-NH2 (peptide)
< 200 nM,,Ac-Phe-Orn-Hyp-hle-Pff-Phe-NH2 (peptide)
< 200 nM,,Ac-Phe-Orn-NMA-cha-Bta-Phe-NH2 (peptide)
< 200 nM,,Ac-Phe-Orn-NMS-cha-Bta-Phe-NH2 (peptide)

"IC50 activity group, enzyme release assay","EC50, agonistic activity, enzyme release assay",Substance
< 50 nM,> 100000 nM,Ac-Phe-Orn-Pip-cha-Trp-Phe-NH2 (peptide)
< 2000 nM,,Ac-Phe-Orn-Pip-cha-Trp-Phe-OH (peptide)
< 200 nM,,Ac-Phe-Orn-Pro-Cha-Bta-NH-NBn-CO-NH2 (peptide)
< 200 nM,,Ac-Phe-Orn-Pro-cha-1Ni-Phe-NH2 (peptide)
< 200 nM,,Ac-Phe-Orn-Pro-cha-Bta-1Ni-NH2 (peptide)
< 50 nM,,Ac-Phe-Orn-Pro-cha-Bta-2Ni-NH2 (peptide)
< 50 nM,,Ac-Phe-Orn-Pro-cha-Bta-Bhf-NH2 (peptide)
< 200 nM,,Ac-Phe-Orn-Pro-cha-Bta-Cha-NH2 (peptide)
< 50 nM,,Ac-Phe-Orn-Pro-cha-Bta-Dff-NH2 (peptide)
< 200 nM,,Ac-Phe-Orn-Pro-cha-Bta-Eaa-NH2 (peptide)
< 200 nM,,Ac-Phe-Orn-Pro-cha-Bta-Mcf-NH2 (peptide)
< 20 nM,,Ac-Phe-Orn-Pro-cha-Bta-Mff-NH2 (peptide)
< 200 nM,,Ac-Phe-Orn-Pro-cha-Bta-NH-CH(CH2OH)-CH2-Ph (peptide)
< 200 nM,,Ac-Phe-Orn-Pro-cha-Bta-Opa-NH2 (peptide)
< 50 nM,,Ac-Phe-Orn-Pro-cha-Bta-Pcf-NH2 (peptide)
< 50 nM,> 100000 nM,Ac-Phe-Orn-Pro-cha-Bta-Phe-NH2 (peptide)
< 50 nM,,Ac-Phe-Orn-Pro-cha-Bta-Pmf-NH2 (peptide)
< 20 nM,,Ac-Phe-Orn-Pro-cha-Bta-Thi-NH2 (peptide)
< 200 nM,,Ac-Phe-Orn-Pro-cha-Otf-Phe-NH2 (peptide)
< 50 nM,,Ac-Phe-Orn-Pro-ctb-Bta-Phe-NH2 (peptide)
< 50 nM,,Ac-Phe-Orn-Pro-ctb-Eaa-Phe-NH2 (peptide)
< 200 nM,,Ac-Phe-Orn-Pro-ctb-Mcf-Phe-NH2 (peptide)
